Data reported in patent US20190248902A1 (published 2019).

T1: Dog ASGR-1 (dog)
T1 construct: Expressed on HEK 293 cells or as membrane prep on beads; cDNA GenBank XM_546579
T1 chain: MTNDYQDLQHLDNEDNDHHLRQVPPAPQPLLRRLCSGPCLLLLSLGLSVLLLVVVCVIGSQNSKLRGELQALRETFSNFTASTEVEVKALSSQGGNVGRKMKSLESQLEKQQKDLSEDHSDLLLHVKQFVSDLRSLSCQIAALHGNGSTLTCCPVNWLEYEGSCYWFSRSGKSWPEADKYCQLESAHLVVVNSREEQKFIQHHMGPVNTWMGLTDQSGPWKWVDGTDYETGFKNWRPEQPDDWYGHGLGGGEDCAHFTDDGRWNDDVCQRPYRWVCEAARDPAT

T2: Soluble ASGR-1 (human, UniProt P07306 62-291, biotinylated)
T2 construct: Soluble recombinant protein; also called recombinant, soluble ASGR-1 biotinylated protein
T2 sequence: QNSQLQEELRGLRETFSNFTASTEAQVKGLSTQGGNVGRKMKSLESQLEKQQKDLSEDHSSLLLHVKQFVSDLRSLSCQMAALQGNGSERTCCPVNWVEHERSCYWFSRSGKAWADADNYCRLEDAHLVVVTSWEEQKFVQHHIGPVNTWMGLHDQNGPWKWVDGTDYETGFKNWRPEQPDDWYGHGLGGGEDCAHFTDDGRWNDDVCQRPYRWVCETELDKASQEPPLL

T3: Rat ASGR-1 (rat, UniProt P02706 1-284)
T3 construct: Expressed on HEK 293 cells or as membrane prep on beads; cDNA GenBank NM_012503
T3 sequence: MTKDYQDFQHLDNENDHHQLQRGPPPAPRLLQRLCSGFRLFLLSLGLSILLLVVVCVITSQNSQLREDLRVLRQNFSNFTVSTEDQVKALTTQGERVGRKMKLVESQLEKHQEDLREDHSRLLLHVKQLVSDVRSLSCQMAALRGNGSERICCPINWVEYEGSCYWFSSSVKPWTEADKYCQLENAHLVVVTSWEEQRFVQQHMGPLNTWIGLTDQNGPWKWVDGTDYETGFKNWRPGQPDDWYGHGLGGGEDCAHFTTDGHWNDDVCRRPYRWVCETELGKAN


What was measured:
Dog ASGR-1 = target: T1, Dog ASGR-1; assay: FACS on transfected HEK 293 cells or membrane preps on beads; Y = signal at least 2x irrelevant IgG
Summary of the method: (§1)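 Antibodies at normalized concentrations bound 1 h at 4° C to HEK 293 cells expressing each antigen, then Alexa Fluor 647 anti-Fc plus 7-AAD 15 min at 4° C, flow cytometry; empty-vector cells as negative. Alternatively, species ASGR-1 membrane preps on streptavidin beads, antibody 1 h RT, Alexa Fluor 488 anti-Fc; FACS buffer with 1 mM CaCl2 throughout.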

Soluble ASGR-1 = target: T2, Soluble ASGR-1; assay: limited antigen binding assay; biotinylated soluble ASGR-1 coated at 2.5 ng/mL on LumAvidin beads, FACS
Protocol: To assess antibody and antigen interaction strength (relative binding affinity), ASGR-1 specific, ligand competing antibody hybridoma supernatants were tested in a limiting antigen binding assay. Titrated amounts of recombinant, soluble ASGR-1 biotinylated protein was incubated with streptavidin-coated LumAvidin Beads® for 45 minutes in the dark at room temperature and washed twice. Beads were resuspeneded in FACS buffer containing Stabilguard® and 0.05% Sodium Azide. Antigen-bound beads were then incubated with normalized hybridoma supernatant sample or controls for 18 hours in the dark at room temperature, washed twice, incubated with Alexa Fluor® 488 IgG fragment-specific detection antibody for 15 minutes in the dark at room temperature, washed once and finally resuspended in FACS buffer. Samples were analyzed using an Intellicyt iQue™ Screener Platform. FACS buffer supplemented with 1 mM Calcium Chloride was used in all steps. […] In this assay method, the antibody binding signal correlates with antibody affinity. Antibody binding data for a representative antigen coating concentration that fell in the linear range of the instrument signal detection is shown in Table 7.2. The degree of antibody binding to the target (ASGR-1) correlates with the measured fluorescent intensity and thus allows a relative comparison of affinities across the panel.

Rat ASGR-1 [1] = target: T3, Rat ASGR-1; assay: FACS on transfected HEK 293 cells or membrane preps on beads; binding = signal at least 2x irrelevant IgG
Summary of the method: as §1

Rat ASGR-1 [2] = target: T3, Rat ASGR-1; assay: FACS on transfected HEK 293 cells or membrane preps on beads; Y = signal at least 2x irrelevant IgG
Summary of the method: as §1

Row | binding result (Dog ASGR-1) | FACS Geomean (Soluble ASGR-1) [FACS Geomean] | binding result (Rat ASGR-1 [1]) | binding result (Rat ASGR-1 [2]) | Binder
1 | binds | 21900 | no binding |  | 194C10 (antibody, V domains shown, Tested as hybridoma supernatant at normalized concentration) VH: QVQLQQWGAGLLKPSETLSLTCAVSGGSFRYYYWSWIRQPPGKGLEWFGEINHSGSTNYNPSLKSRVTISIDTSKNQFSLKLRSVTAADTAVYYCARDYGAFDIWGQGTMVTVSS VL: EIVLTQSPGTLSLSPGERATLSCRASPSVNSGYLAWYQQKPGQTPRLLIFGASSRATGIPDRFSASGSGADFTLTISRLEPEDFAVYFCQQYESSPWTFGQGTKVEIK
2 | binds | 105 |  | binds | 12D2 (antibody, V domains shown, Tested as hybridoma supernatant at normalized concentration) VH: EVQLVESGGGLVKPGGSLRLSCAASGFTFSSYSMNWVRQAPGKGLEWVSSISSSSSYIYYADSVKGRFTISRDNAKNSLYLQMNSLRAEDTAVYYCARLGDYWGQGTLVAVSS VL: not shown
3 | binds | 40200 |  | binds | 184E7 (antibody, V domains shown, Tested as hybridoma supernatant at normalized concentration) VH: QVQLVQSGAEVKTPGASVKVSCRASGYTFTSYNMHWVRQVPGQGLEWMGWINPNNGGSNYTQKFQGRVTMTRDTSISTAYMELSRLRSDDTAVYYCARKFGDWGQGTLVTVSS VL: DIQMTQSPSSRSASIGERVTITCRASQGISNYLAWIQQKPGTAPKSLIYAASSLQSGVSSRFSGSGFGTDFTITISSVQREDFATYYCQQYNGYPFTFGHGTKVDIK
4 | binds | 16900 | no binding |  | 194C1 (antibody, V domains shown, Tested as hybridoma supernatant at normalized concentration) VH: QVQLVESGGGVVQPGRSLRLSCAASGFTFSSYGMHWVRQAPGKGLEWVAVIWYDGSNEHYADSVKGRFTISRDNSKNTLYLQMNSLRAEDTAVYYCARNRGVGYYGLDVWGQGTTVTVSS VL: DIQMTQSPSSLSASVGDRVTITCRASQGISNYLAWFQQKPGKAPKSLIYAASSLQSGVPSKFSGSGSGTDFTLTISSLQPEDFATYYCLHYLTYPLTFGGGTKVEIK
5 | binds | 9550 | no binding |  | 191G1 (antibody, V domains shown, Tested as hybridoma supernatant at normalized concentration) VH: QVQLVESGGGVVQPGRSLRLSCAASGFTFSSYGMHWVRQAPGKGLEWVAVIWYDGSNEHYADSVKGRFTISRDNSKNTLYLQMNSLRAEDTAVYYCARDRGVGYYGLDVWGQGTTVTVSS VL: DIQMTQSPSSLSASVGDRVTITCRASQGISNYLAWFQQKPGKAPKSLIYAASSLQSGVPSKFSGSGSGTDFTLTISSLQPEDFATYYCQHYLTYPLTFGGGTKVEIK
6 | binds | 26000 | no binding |  | 198G3 (antibody, V domains shown, Tested as hybridoma supernatant at normalized concentration) VH: QVQLVESGGGVVQPGRSLKLSCAASGFTFSTYGMHWVRQAPGKGLEWVAVIWYDGTNKNYADSVKGRFTISRDNSKNTLCLQMNSLRAEDTAVYYCARDQGVGYDGLDVWGQGTTVTVSS VL: DIQMAQSPSSLSASVGDRVTITCRTSQGIGKYLAWFQQKPGKAPKSLLYKASSLQGGVPSKFSGSGSGTDFTLTISSLQPEDFATYYCQQYMTYPLTFGGGTKVEIK
7 | binds | 24200 | no binding |  | 191G10 (antibody, V domains shown, Tested as hybridoma supernatant at normalized concentration) VH: QVQLVESGGGVVQPGRSLRLSCAASGFTFSSYGMHWVRQAPGKGLEWVAVIWYDGSNKNYADSVKGRFTISRDNSKNTLYLQMNSLRAEDTAVYYCARDQGVGYDGLDVWGQGTTVTVSS VL: DIQMTQSPSSLSASVGDRVTITCRTSQGIGKYLAWFQQKPGKAPKSLLYKVSSLQSGVPSKFSGSGSGTDFTLTISSLQPEDFATYYCQQYMTYPLTFGGGTKVEIK
8 | binds | 35800 | no binding |  | 75G3 (antibody, V domains shown, Tested as hybridoma supernatant at normalized concentration) VH: QVQLQQWGAGLLKPSETLSLTCAVYGGSLSGSYWSWIRQPPGKGLEWIGEINLSGSTNYNPSLKSRVTISVDTSKSQFSLTLRSVTAADTAVYYCARDYGGLDYWGQGTLVTVSS VL: EIVLTQSPGTLSLSPGERATLSCRARQNVDSSYLAWYQQKPGQAPRLLIYGASSRATGIPDRFSGSGSGTDFTLTISRLEPEDFAVFYCQQYERSPWTFGQGTKVEIK

Second part, the binder before the results:

Row | Binder | binding result (Dog ASGR-1) | FACS Geomean (Soluble ASGR-1) [FACS Geomean] | binding result (Rat ASGR-1 [1]) | binding result (Rat ASGR-1 [2])
9 | 218G4 (antibody, V domains shown, Tested as hybridoma supernatant at normalized concentration) VH: QVQLVESGGGVVQPGRSLRLSCAASGFTFSSYGLHWVRQAPGKGLEWVAVIWYDGSNKYYADSVKGRFTISRDNSKNTLYLQMNSLRVEDTAVYYCANWYYYYYGMDVWGQGTTVTVSS VL: QSVLTQPPSVSAAPGQKVTISCSGSSSNIGNNYVSWYQQLPGTAPKLLLYDSNKRPSGIPARFSGSKSGTSATLGITGLQTGDEADYYCGTWDSSLNTVVFGGGTKLTVL | binds | 15100 | no binding | 
10 | 202A3 (antibody, V domains shown, Tested as hybridoma supernatant at normalized concentration) VH: QVQLEQSGAEVKKPGASVKVSCKASGYTFTSYDINWVRQATGQGLEWLGWMNPKRGNTGYAQKFQGRVTMTRNTSISTAHMELSSLRSEDTAVYYCARGRYSREDYYYYYDMDVWGQGTTVTVSS VL: DIQMSQSPSSLSASVGDRVTITCRASQGIRNDLGWYQQKPGKAPKRLICAASRLQSGVPSRFSGSGSGTEFTLTISSLQPEDFAIYYCLQHHDYPFTFGPGTKVDIK | binds | 2150 | no binding | 
11 | 190F8 (antibody, V domains shown, Tested as hybridoma supernatant at normalized concentration) VH: QVQLVESGGGVVQPGRSLRLSCAASGFTFSTYGMHWVRQAPGKGLEWVAVIWYDGSNKNYADSVKGRFTISRDNSKNTLYLQMNSLRAEDTAVYYCARDQGVGYDGLDVWGQGTTVTVSS VL: DIQMTQSPSSLSASVGDRVTITCRTSQGIGNYLAWFQQKPGKAPKSLLYKASSLQSGVPSKFSGSGSGTDFTLTISSLQPEDFATYYCQQYMTYPLTFGGGTKVEIK | binds | 13900 | no binding | 
12 | 197G3 (antibody, V domains shown, Tested as hybridoma supernatant at normalized concentration) VH: QVQLVESGGGVVQPGRSLRLSCVASGFTFSSHGMHWVRQAPGKGLEWVAVIWYDGSNKNYADSVKGRFTISRDNSKNTLYLQMNSLRAEDTAVYYCARDPSVGYDGMDVWGQGTTVTVSS VL: DIQMTQSPSSLSASVGDRVTITCRASQGIGNHLAWFQQKPGKAPKSLIYAASSLQSGVPSKFSGSRSGTDFSLTISSLQPEDFATYYCQQYSNYPVTFGPGTKVDIK | binds | 17700 | no binding | 
13 | 176H4 (antibody, V domains shown, Tested as hybridoma supernatant at normalized concentration) VH: QVQLVESGGGVVQPGRSLRLSCAASGFTFSSYGMHWVRQAPGKGLEWVAIIWYDGSYKYYADSVKGRFTISRDNSKNTLYLQMSSLRAEDTAVYYCARDAHDFWSGYFAYWGQGALVTVSS VL: DIVMTQTPLSLSVTPGQPASISCKSSQSLLHGDGKTYLYWYLQKPGQPPQLLIYEVSNRFSGVPDRFSGSGSGTDFTLKISRVEAEDVGIYYCMQSIQIPWTFGQGTRVEIK | binds | 29400 | no binding | 
14 | 194A4 (antibody, V domains shown, Tested as hybridoma supernatant at normalized concentration) VH: QVQLVQSGTEVKKPGASLKVSCKASGYTFTVYYLNWVRQAPGQGLEWMGWINPNSGGTNYAQKFQGRVTMTRDTSISTAYMELSRLRSDDTAVYYCARGYDILTGWGQGTLVTVSS VL: EIVLTQSPGTLSLSPGERATLSCRASRGVSNIYLAWYQQKPGQAPRLLIYGASNRATGIPDRFSGSGSGTDFTLTISRLEPEDFAVYYCQHNDYSMFTFGPGTKVDIK | binds | 38900 |  | binds
